Assay results as given in patent publication US20260258137A1 (HARBOUR BIOMED SHANGHAI, published 2026).

Key:
[1] = molecular target: human PD-L1 on Hep3B cells co-expressing human PD-L1 and OS8 (human, UniProt Q9NZQ7 19-290); assay: cell-based or functional assay
[2] = molecular target: T1, human PD-L1 on CHO-K1 cells (CHO-K1/hPD-L1, Nanjing Genscript, M00543) (human, UniProt Q9NZQ7 19-290); assay: flow cytometry on CHO-K1/hPD-L1 cells
T1 construct: whole, on cells; also called CHO-K1 cells overexpressing human PD-L1; human PD-L1 on the cell surface

[3] = molecular target: T2, Human PD-L1 (Acrobiosystems, EP-101-96tests, A001-214) (human, UniProt Q9NZQ7 19-238); assay: competition ELISA: hPD-1-Biotin binding to coated hPD-L1
T2 construct: bought reagent; also called human PD-L1 protein

[4] = molecular target: T3, Human PD-L1-hFc protein (Acrobiosystems, PD1-H5258) (human, UniProt Q9NZQ7 19-238); assay: competition ELISA: hB7-1-Biotin binding to coated hPD-L1-hFc
T3 construct: bought reagent; not shown: human Fc (hFc)

[5] = molecular target: T1, human PD-L1 on CHO-K1 cells …; assay: flow cytometry competition: biotin-hPD-1 binding to CHO-K1/hPD-L1 cells
[6] = molecular target: T4, Human PD-L1 (Acrobiosystems, PD1-H5229) (human, UniProt Q9NZQ7 19-238); assay: ELISA, coated human PD-L1
T4 construct: bought reagent; also called human PD-L1 protein
T4 sequence (Q9NZQ7 19-238 limits assumed): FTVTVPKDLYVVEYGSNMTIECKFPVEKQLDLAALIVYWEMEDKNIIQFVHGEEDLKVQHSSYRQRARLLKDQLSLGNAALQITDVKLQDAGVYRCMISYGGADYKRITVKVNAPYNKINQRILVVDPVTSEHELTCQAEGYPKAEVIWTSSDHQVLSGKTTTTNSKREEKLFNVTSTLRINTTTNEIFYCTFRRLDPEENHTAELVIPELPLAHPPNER

T3 sequence (Q9NZQ7 19-238 limits assumed): as above
T2 sequence (Q9NZQ7 19-238 limits assumed): as above
T1 sequence (Q9NZQ7 19-290, one chain of several): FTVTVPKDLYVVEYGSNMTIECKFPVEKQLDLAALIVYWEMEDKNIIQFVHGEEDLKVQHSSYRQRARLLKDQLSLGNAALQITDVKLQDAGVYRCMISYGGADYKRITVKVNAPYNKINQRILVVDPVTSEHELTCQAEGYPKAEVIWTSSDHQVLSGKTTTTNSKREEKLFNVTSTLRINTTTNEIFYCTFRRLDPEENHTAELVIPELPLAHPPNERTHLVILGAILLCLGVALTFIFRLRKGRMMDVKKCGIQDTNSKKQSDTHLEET
Sequence of human PD-L1 on Hep3B cells co-expressing human PD-L1 and OS8 (Q9NZQ7 19-290): as the sequence (Q9NZQ7 19-290, one chain of several) above

Binder	EC50 (nM), PD-1 / NFAT-luciferase reporter [1] [nM]	Maximum fluorescence value (RLU) [1] [RLU]	EC50 [2] [pM]	MFI maximum value [2] [MFI]	IC50 [3] [pM]	Maximum inhibition rate (%) [3] [%]	IC50 [4] [pM]	Maximum inhibition rate (%) [4] [%]	IC50 [5] [pM]	Maximum inhibition rate (%) [5] [%]	EC50 [6] [pM]
PR000067 (antibody, human IgG1, kappa, N297A, V domains shown, fully human recombinant antibody, human IgG1 heavy chain, kappa light chain (IGKV1-5); also called 73G3G9B11) VH: EVQLVESGGGLVQPGGSLRLSCAASGFTFSSYWMSWVRQAPGKGLEWVANIKQDGSEKYYVDSVKGRFTISRDNAKNSLYLQMNSLRAEDTAVYYCARDRAVAGAFDIWGQGTMVTVSS VL: not shown	0.682	79800	456	7340	333	92.9	153	36.9	894	91.2	
PR000070 (antibody, human IgG1, kappa, N297A, V domains shown, fully human recombinant antibody, human IgG1 heavy chain, kappa light chain (IGKV1-5); also called 91G3H5H3) VH: EVQLVESGGGLVQPGGSLRLSCAASGFTFSSYWMSWVRQAPGKGLEWVANIKQDGSEKYYVDSVKGRFTISRDNAKNSLYLQMNSLRAEDTAVYYCARDRAVAGAFDIWGQGTMVTVSS VL: DIQMTQSPSTLSASVGDRVTVTCRASQSIYIWLAWYQQKPGKAPNLLIYKASSLETGVPSRFSGSGSGTEFTLTISSLQPDDFATYYCQQYYGSSRTFGQGTKVEIKR	0.269	82700	210	7790	200	90.6	305	39.9	449	90.7	64.1
PR000065 (antibody, human IgG1, kappa, N297A, V domains shown, fully human recombinant antibody, human IgG1 heavy chain, kappa light chain (IGKV1-5); also called 67C1F7G6) VH: EVQLVESGGGLVQPGGSLRLSCAASGFTFSSYWMSWVRQAPGKGLEWVANIKQDGSEKYYVDSVKGRFTISRDNAKNSLYLQMNSLRAEDTAVYYCARDRAVAGAFDIWGQGTMVTVSS VL: DIQMTQSPSTLSASVGDRVTITCRASQSIFIWLAWYQQKPGKAPNLLIYKASSLETGVPSRFSGSGSGTEFTLTISSLQPDDFATYYCQQYYGSSRTFGQGTKVEIKR			412	7660	432	99	312	43.8			
PR000066 (antibody, human IgG1, kappa, N297A, V domains shown, fully human recombinant antibody, human IgG1 heavy chain, kappa light chain (IGKV1-5); also called 69B8G8C2) VH: EVQLVESGGGLVQPGGSLRLSCAASGFTFSSYWMSWVRQAPGKGLEWVANIKQDGSEKYYVDSVKGRFTISRDNAKNSLYLQMNSLRAEDTAVYYCARDRAVAGASAFWGQGTMVTVSS VL: DIQMTQSPSTLSASVGHRVTITCRASQSISIWLAWYQQKPGKAPDLLIYKASSLETGVPSRFSGNGSGTEFTLTISSLQPDDFATYYCQQYYGSSRTFGQGTKVEIKR	0.292	85900	255	7860	350	93	198	47.2	539	91.8	18.9
PR000072 (antibody, human IgG1, kappa, N297A, V domains shown, fully human recombinant antibody, human IgG1 heavy chain, kappa light chain (IGKV1-5); also called 98E11H1C9) VH: EVQLVESGGGLVQPGGSLRLSCAASGFTFSSYWMSWVRQAPGKGLEWVANIKQDGSEKYYGDSVKGRFTISRDNAKNSLYLQMNSLRAEETAVYYCARDRAVAGASDIWGQGTMVTVSS VL: DIQMTQSPSTLSASVGDRVTITCRASQSISSWLAWYQQKPGKAPNLLIYKASSLETGVPSRFSGSGSGTEFTLTISSLQPDDFATYYCQQYYGYSRTFGQGTKVEIKR	0.293	78000	292	7630	237	89.8	253	47.6	746	92.5	47.4
PR000064 (antibody, human IgG1, kappa, N297A, V domains shown, fully human recombinant antibody, human IgG1 heavy chain, kappa light chain (IGKV1-5); also called 63G11H3G9) VH: EVQLVESGGGLVQPGGSLRLSCAASGFTFSSYWMSWVRQAPGKGLEWVANIKQDGSEKYYVDSVKGRFTISRDNAKNSLYLQMNSLRAEDTAVYYCARDRAVAGAFDIWGQGTMVTVSS VL: DIQMTQSPSTLSTSVGDRVTITCRASQSISIWLAWYQQKPGKAPKLLIYKASSLESGVPSRFSGSGSGTEFTLTISSLQPDDFATYYCQQYYGYSRTFGQGTKVEIKR	0.533	81600	417	7880	313	91.1	284	35.9	938	91.5	
PR000068 (antibody, human IgG1, kappa, N297A, V domains shown, fully human recombinant antibody, human IgG1 heavy chain, kappa light chain (IGKV1-5); also called 82F8H7E1) VH: EVQLVESGGGLVQPGGSLRLSCAASGFTFSSYWMSWVRQAPGKGLEWVANIKQDGSEKYYVDSVKGRFTISRDNAKNSLYLQMNSLRAEDTAVYYCARDRPVAGASDIWGQGTMVTVSS VL: not shown	0.603	83300	326	7640	288	91.6	199	35	853	91.4	
PR000264 (antibody, human IgG1, kappa, N297A, V domains shown, heavy chain human IgG1 (N297A)) VH: EVQLVESGGGLVQPGGSLRLSCAASGFTFSSYWMSWVRQAPGKGLEWVANIKQDASEKYYVDSVKGRFTISRDNAKNSLYLQMNSLRAEDTAVFYCARDRAVAGAFAIWGQGTMVTVSS VL: DIQMTQSPSTLSASVGDRVTITCRASQSIYIWLAWYQQHPGKAPKLLIYKASSLESGVPSRFSGSGSGTEFTLTISSLQPDDFATYFCQQYYGYSRTFGQGTKVEIRR											34.3
PR000261 (antibody, human IgG1, kappa, N297A, V domains shown, PTM variant of PR000066 (H:D54E); heavy chain human IgG1 (N297A)) VH: EVQLVESGGGLVQPGGSLRLSCAASGFTFSSYWMSWVRQAPGKGLEWVANIKQEGSEKYYVDSVKGRFTISRDNAKNSLYLQMNSLRAEDTAVYYCARDRAVAGASAFWGQGTMVTVSS VL: DIQMTQSPSTLSASVGHRVTITCRASQSISIWLAWYQQKPGKAPDLLIYKASSLETGVPSRFSGSGSGTEFTLTISSLQPDDFATYYCQQYYGSSRTFGQGTKVEIKR											38.5
PR000071 (antibody, human IgG1, kappa, N297A, V domains shown, fully human recombinant antibody, human IgG1 heavy chain, kappa light chain (IGKV1-5); also called 95C7C4A9) VH: EVQLVESGGGLVQPGGSLRLSCAASGFTFSSYWMSWVRQAPGKGLEWVANIKQDGSEKYYVDSVKGRFTISRDNAKNSQYLQMNSLRAEDTAVYYCARDRAVAGASDIWGQGTMVTVSS VL: not shown	2.71	79700	521	6890	448	89	351	37.5	987	91.6	
PR000263 (antibody, human IgG1, kappa, N297A, V domains shown, heavy chain human IgG1 (N297A)) VH: EVQLVESGGGLVQPGGSLRLSCAASGFTFSSYWMSWVRQAPGKGLEWVANIKQEGSEKYYVDSVKGRFTISRDNAKNSLYLQMNSLRAEDTAVFYCARDRAVAGAFAIWGQGTMVTVSS VL: DIQMTQSPSTLSASVGDRVTITCRASQSIYIWLAWYQQHPGKAPKLLIYKASSLESGVPSRFSGSGSGTEFTLTISSLQPDDFATYFCQQYYGYSRTFGQGTKVEIRR											32.1
PR000069 (antibody, human IgG1, kappa, N297A, V domains shown, fully human recombinant antibody, human IgG1 heavy chain, kappa light chain (IGKV1-5); also called 85C5E4G3) VH: EVQLVESGGGLVQPGGSLRLSCAASGFTFSSYWMSWVRQAPGKGLEWVANIKQDGSEKYYVDSVKGRFTISRDNAKNSLYLQMNSLRAEDTAVFYCARDRAVAGAFAIWGQGTMVTVSS VL: DIQMTQSPSTLSASVGDRVTITCRASQSIYIWLAWYQQHPGKAPKLLIYKASSLESGVPSRFSGSGSGTEFTLTISSLQPDDFATYFCQQYYGYSRTFGQGTKVEIRR	0.271	83300	312	7530	313	90.7	280	33	836	92.3	63.7
PR000262 (antibody, human IgG1, kappa, N297A, V domains shown, PTM variant of PR000066 (H:G55A); heavy chain human IgG1 (N297A)) VH: EVQLVESGGGLVQPGGSLRLSCAASGFTFSSYWMSWVRQAPGKGLEWVANIKQDASEKYYVDSVKGRFTISRDNAKNSLYLQMNSLRAEDTAVYYCARDRAVAGASAFWGQGTMVTVSS VL: DIQMTQSPSTLSASVGHRVTITCRASQSISIWLAWYQQKPGKAPDLLIYKASSLETGVPSRFSGSGSGTEFTLTISSLQPDDFATYYCQQYYGSSRTFGQGTKVEIKR											33.8
